Assay results reported in PMC4260915, “Colorful Protein-Based Fluorescent Probes for Collagen Imaging” (PLoS ONE, 2014).

Target: T1, Rat tail collagen type I (rat, UniProt P02454 152-1207; P02466 86-1125)
T1 construct: collagen alpha-1(I) chain, rat; collagen alpha-2(I) chain, rat; Immobilised as a collagen matrix formed on pH neutralisation; source: bought: Sigma-Aldrich, cat. no; C7661
Assay: solid-phase collagen binding assay (fluorescence of bound probe, plate reader); rat tail collagen type I or BSA immobilised in wells of a 96-well plate, blocked with 2% BSA; probe dilutions 0.1–50 µM, 1–1.5 hours at room temperature; 20 mM HEPES pH 7.2, 150 mM NaCl; apparent overall Kd
Settings: both partners purified

T1 sequence (P02454 152-1207, chain 1 of 2): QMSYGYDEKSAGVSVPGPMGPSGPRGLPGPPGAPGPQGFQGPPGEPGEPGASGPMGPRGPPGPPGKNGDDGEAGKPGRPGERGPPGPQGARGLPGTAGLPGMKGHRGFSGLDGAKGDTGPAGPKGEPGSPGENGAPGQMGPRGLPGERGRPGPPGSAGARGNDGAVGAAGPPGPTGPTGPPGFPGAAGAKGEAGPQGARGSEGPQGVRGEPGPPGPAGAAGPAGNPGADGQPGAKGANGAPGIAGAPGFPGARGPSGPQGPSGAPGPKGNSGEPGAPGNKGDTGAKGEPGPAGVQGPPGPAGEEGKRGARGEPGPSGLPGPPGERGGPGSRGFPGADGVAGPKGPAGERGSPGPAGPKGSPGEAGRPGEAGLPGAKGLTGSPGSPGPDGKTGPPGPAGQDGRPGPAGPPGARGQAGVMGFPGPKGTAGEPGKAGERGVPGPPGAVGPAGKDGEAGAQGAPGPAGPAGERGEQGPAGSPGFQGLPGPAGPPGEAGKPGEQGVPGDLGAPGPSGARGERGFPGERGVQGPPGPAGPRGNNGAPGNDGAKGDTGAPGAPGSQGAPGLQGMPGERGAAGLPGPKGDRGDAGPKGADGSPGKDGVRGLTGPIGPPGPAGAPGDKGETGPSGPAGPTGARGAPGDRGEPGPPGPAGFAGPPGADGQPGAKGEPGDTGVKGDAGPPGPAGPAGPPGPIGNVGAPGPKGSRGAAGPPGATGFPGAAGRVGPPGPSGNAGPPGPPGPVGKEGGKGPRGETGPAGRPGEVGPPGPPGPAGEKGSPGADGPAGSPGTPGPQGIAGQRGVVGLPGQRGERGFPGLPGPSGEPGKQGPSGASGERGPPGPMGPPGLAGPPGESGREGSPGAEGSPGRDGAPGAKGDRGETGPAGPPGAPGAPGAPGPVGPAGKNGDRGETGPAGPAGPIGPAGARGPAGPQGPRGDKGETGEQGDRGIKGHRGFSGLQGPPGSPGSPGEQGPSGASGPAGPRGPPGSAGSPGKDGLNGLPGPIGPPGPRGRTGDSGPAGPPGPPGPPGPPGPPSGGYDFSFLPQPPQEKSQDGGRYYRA
T1 sequence (P02466 86-1125, chain 2 of 2): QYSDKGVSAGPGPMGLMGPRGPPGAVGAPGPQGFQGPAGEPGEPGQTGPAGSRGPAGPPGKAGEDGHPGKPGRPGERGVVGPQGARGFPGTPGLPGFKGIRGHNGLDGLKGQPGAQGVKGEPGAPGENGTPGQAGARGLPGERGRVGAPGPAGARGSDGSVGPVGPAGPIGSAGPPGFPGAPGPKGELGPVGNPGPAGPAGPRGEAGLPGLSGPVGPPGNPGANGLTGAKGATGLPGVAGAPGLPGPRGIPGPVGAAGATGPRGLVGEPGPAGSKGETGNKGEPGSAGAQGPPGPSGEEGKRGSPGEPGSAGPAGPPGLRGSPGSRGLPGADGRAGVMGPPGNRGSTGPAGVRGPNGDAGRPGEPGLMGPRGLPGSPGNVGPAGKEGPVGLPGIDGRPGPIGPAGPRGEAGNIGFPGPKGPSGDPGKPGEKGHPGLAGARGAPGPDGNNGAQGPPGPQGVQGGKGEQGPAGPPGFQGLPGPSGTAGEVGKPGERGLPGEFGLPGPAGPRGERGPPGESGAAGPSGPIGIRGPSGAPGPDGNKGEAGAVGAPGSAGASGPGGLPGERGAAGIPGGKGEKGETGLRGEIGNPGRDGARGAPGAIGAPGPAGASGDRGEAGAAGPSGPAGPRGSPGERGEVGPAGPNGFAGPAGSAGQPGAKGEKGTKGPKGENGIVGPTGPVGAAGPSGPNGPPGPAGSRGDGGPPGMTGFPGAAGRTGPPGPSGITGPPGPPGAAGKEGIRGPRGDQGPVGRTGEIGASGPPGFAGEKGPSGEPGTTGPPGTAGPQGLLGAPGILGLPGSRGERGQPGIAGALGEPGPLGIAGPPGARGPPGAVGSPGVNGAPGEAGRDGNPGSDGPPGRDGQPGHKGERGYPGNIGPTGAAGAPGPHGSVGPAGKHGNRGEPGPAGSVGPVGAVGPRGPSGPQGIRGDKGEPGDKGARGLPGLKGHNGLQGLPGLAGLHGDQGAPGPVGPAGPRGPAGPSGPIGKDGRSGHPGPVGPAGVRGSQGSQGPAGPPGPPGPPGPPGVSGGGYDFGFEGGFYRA

Binder	Kd [nM]
mTurquoise2-CNA35 (domain or fragment, CNA35: domains N1 and N2 of the A-region of Staphylococcus aureus collagen adhesion protein, amino acids 30-344; Order: His-tag, thrombin cleavage site, mTurquoise2, flexible linkage of about 20 amino acids, CNA35; 65.2 kDa; also called FP-CNA35; N-terminal fusion of mTurquoise2 to CNA35; not shown: mTurquoise2, N-terminal, kept) ARDISSTNVTDLTVSPSKIEDGGKTTVKMTFDDKNGKIQNGDMIKVAWPTSGTVKIEGYSKTVPLTVKGEQVGQAVITPDGATITFNDKVEKLSDVSGFAEFEVQGRNLTQTNTSDDKVATITSGNKSTNVTVHKSEAGTSSVFYYKTGDMLPEDTTHVRWFLNINNEKSYVSKDITIKDQIQGGQQLDLSTLNINVTGTHSNYYSGQSAITDFEKAFPGSKITVDNTKNTIDVTIPQGYGSYNSFSINYKTKITNEQQKEFVNNSQAWYQEHGKEEVNGKSFNHTVHNINANAGIEGTVKGELKVLKQDKDTKA	~1000
CNA35-mCherry (domain or fragment, CNA35: domains N1 and N2 of the A-region of Staphylococcus aureus collagen adhesion protein, amino acids 30-344; Order: His-tag, thrombin cleavage site, CNA35, flexible linkage of about 20 amino acids, mCherry; 64.7 kDa; also called CNA35-FP; C-terminal fusion of mCherry to CNA35; not shown: mCherry, C-terminal, kept) ARDISSTNVTDLTVSPSKIEDGGKTTVKMTFDDKNGKIQNGDMIKVAWPTSGTVKIEGYSKTVPLTVKGEQVGQAVITPDGATITFNDKVEKLSDVSGFAEFEVQGRNLTQTNTSDDKVATITSGNKSTNVTVHKSEAGTSSVFYYKTGDMLPEDTTHVRWFLNINNEKSYVSKDITIKDQIQGGQQLDLSTLNINVTGTHSNYYSGQSAITDFEKAFPGSKITVDNTKNTIDVTIPQGYGSYNSFSINYKTKITNEQQKEFVNNSQAWYQEHGKEEVNGKSFNHTVHNINANAGIEGTVKGELKVLKQDKDTKA	~1000
tdTomato-CNA35 (domain or fragment, CNA35: domains N1 and N2 of the A-region of Staphylococcus aureus collagen adhesion protein, amino acids 30-344; Order: His-tag, thrombin cleavage site, tdTomato, flexible linkage of about 20 amino acids, CNA35; 92.5 kDa; also called FP-CNA35; N-terminal fusion of tdTomato to CNA35; not shown: tdTomato, N-terminal, kept) ARDISSTNVTDLTVSPSKIEDGGKTTVKMTFDDKNGKIQNGDMIKVAWPTSGTVKIEGYSKTVPLTVKGEQVGQAVITPDGATITFNDKVEKLSDVSGFAEFEVQGRNLTQTNTSDDKVATITSGNKSTNVTVHKSEAGTSSVFYYKTGDMLPEDTTHVRWFLNINNEKSYVSKDITIKDQIQGGQQLDLSTLNINVTGTHSNYYSGQSAITDFEKAFPGSKITVDNTKNTIDVTIPQGYGSYNSFSINYKTKITNEQQKEFVNNSQAWYQEHGKEEVNGKSFNHTVHNINANAGIEGTVKGELKVLKQDKDTKA	~1000
LSSmOrange-CNA35 (domain or fragment, CNA35: domains N1 and N2 of the A-region of Staphylococcus aureus collagen adhesion protein, amino acids 30-344; Order: His-tag, thrombin cleavage site, LSSmOrange, flexible linkage of about 20 amino acids, CNA35; 64.6 kDa; also called FP-CNA35; N-terminal fusion of LSSmOrange to CNA35; not shown: LSSmOrange, N-terminal, kept) ARDISSTNVTDLTVSPSKIEDGGKTTVKMTFDDKNGKIQNGDMIKVAWPTSGTVKIEGYSKTVPLTVKGEQVGQAVITPDGATITFNDKVEKLSDVSGFAEFEVQGRNLTQTNTSDDKVATITSGNKSTNVTVHKSEAGTSSVFYYKTGDMLPEDTTHVRWFLNINNEKSYVSKDITIKDQIQGGQQLDLSTLNINVTGTHSNYYSGQSAITDFEKAFPGSKITVDNTKNTIDVTIPQGYGSYNSFSINYKTKITNEQQKEFVNNSQAWYQEHGKEEVNGKSFNHTVHNINANAGIEGTVKGELKVLKQDKDTKA	~1000
CNA35-EGFP (domain or fragment, CNA35: domains N1 and N2 of the A-region of Staphylococcus aureus collagen adhesion protein, amino acids 30-344; Order: His-tag, thrombin cleavage site, CNA35, flexible linkage of about 20 amino acids, EGFP; 65.1 kDa; also called CNA35-FP; C-terminal fusion of EGFP to CNA35; not shown: EGFP, C-terminal, kept) ARDISSTNVTDLTVSPSKIEDGGKTTVKMTFDDKNGKIQNGDMIKVAWPTSGTVKIEGYSKTVPLTVKGEQVGQAVITPDGATITFNDKVEKLSDVSGFAEFEVQGRNLTQTNTSDDKVATITSGNKSTNVTVHKSEAGTSSVFYYKTGDMLPEDTTHVRWFLNINNEKSYVSKDITIKDQIQGGQQLDLSTLNINVTGTHSNYYSGQSAITDFEKAFPGSKITVDNTKNTIDVTIPQGYGSYNSFSINYKTKITNEQQKEFVNNSQAWYQEHGKEEVNGKSFNHTVHNINANAGIEGTVKGELKVLKQDKDTKA	~1000
CNA35-LSSmOrange (domain or fragment, CNA35: domains N1 and N2 of the A-region of Staphylococcus aureus collagen adhesion protein, amino acids 30-344; Order: His-tag, thrombin cleavage site, CNA35, flexible linkage of about 20 amino acids, LSSmOrange; 64.7 kDa; also called CNA35-FP; C-terminal fusion of LSSmOrange to CNA35; not shown: LSSmOrange, C-terminal, kept) ARDISSTNVTDLTVSPSKIEDGGKTTVKMTFDDKNGKIQNGDMIKVAWPTSGTVKIEGYSKTVPLTVKGEQVGQAVITPDGATITFNDKVEKLSDVSGFAEFEVQGRNLTQTNTSDDKVATITSGNKSTNVTVHKSEAGTSSVFYYKTGDMLPEDTTHVRWFLNINNEKSYVSKDITIKDQIQGGQQLDLSTLNINVTGTHSNYYSGQSAITDFEKAFPGSKITVDNTKNTIDVTIPQGYGSYNSFSINYKTKITNEQQKEFVNNSQAWYQEHGKEEVNGKSFNHTVHNINANAGIEGTVKGELKVLKQDKDTKA	~1000
CNA35-tdTomato (domain or fragment, CNA35: domains N1 and N2 of the A-region of Staphylococcus aureus collagen adhesion protein, amino acids 30-344; Order: His-tag, thrombin cleavage site, CNA35, flexible linkage of about 20 amino acids, tdTomato; 93.1 kDa; also called CNA35-FP; C-terminal fusion of tdTomato to CNA35; not shown: tdTomato, C-terminal, kept) ARDISSTNVTDLTVSPSKIEDGGKTTVKMTFDDKNGKIQNGDMIKVAWPTSGTVKIEGYSKTVPLTVKGEQVGQAVITPDGATITFNDKVEKLSDVSGFAEFEVQGRNLTQTNTSDDKVATITSGNKSTNVTVHKSEAGTSSVFYYKTGDMLPEDTTHVRWFLNINNEKSYVSKDITIKDQIQGGQQLDLSTLNINVTGTHSNYYSGQSAITDFEKAFPGSKITVDNTKNTIDVTIPQGYGSYNSFSINYKTKITNEQQKEFVNNSQAWYQEHGKEEVNGKSFNHTVHNINANAGIEGTVKGELKVLKQDKDTKA	~1000
EGFP-CNA35 (domain or fragment, CNA35: domains N1 and N2 of the A-region of Staphylococcus aureus collagen adhesion protein, amino acids 30-344; Order: His-tag, thrombin cleavage site, EGFP, flexible linkage of about 20 amino acids, CNA35; 65.0 kDa; also called N-terminal fusion of EGFP to CNA35; not shown: EGFP, N-terminal, kept) ARDISSTNVTDLTVSPSKIEDGGKTTVKMTFDDKNGKIQNGDMIKVAWPTSGTVKIEGYSKTVPLTVKGEQVGQAVITPDGATITFNDKVEKLSDVSGFAEFEVQGRNLTQTNTSDDKVATITSGNKSTNVTVHKSEAGTSSVFYYKTGDMLPEDTTHVRWFLNINNEKSYVSKDITIKDQIQGGQQLDLSTLNINVTGTHSNYYSGQSAITDFEKAFPGSKITVDNTKNTIDVTIPQGYGSYNSFSINYKTKITNEQQKEFVNNSQAWYQEHGKEEVNGKSFNHTVHNINANAGIEGTVKGELKVLKQDKDTKA	~1000
mAmetrine-CNA35 (domain or fragment, CNA35: domains N1 and N2 of the A-region of Staphylococcus aureus collagen adhesion protein, amino acids 30-344; Order: His-tag, thrombin cleavage site, mAmetrine, flexible linkage of about 20 amino acids, CNA35; 64.3 kDa; also called FP-CNA35; N-terminal fusion of mAmetrine to CNA35; not shown: mAmetrine, N-terminal, kept) ARDISSTNVTDLTVSPSKIEDGGKTTVKMTFDDKNGKIQNGDMIKVAWPTSGTVKIEGYSKTVPLTVKGEQVGQAVITPDGATITFNDKVEKLSDVSGFAEFEVQGRNLTQTNTSDDKVATITSGNKSTNVTVHKSEAGTSSVFYYKTGDMLPEDTTHVRWFLNINNEKSYVSKDITIKDQIQGGQQLDLSTLNINVTGTHSNYYSGQSAITDFEKAFPGSKITVDNTKNTIDVTIPQGYGSYNSFSINYKTKITNEQQKEFVNNSQAWYQEHGKEEVNGKSFNHTVHNINANAGIEGTVKGELKVLKQDKDTKA	~1000
CNA35-mAmetrine (domain or fragment, CNA35: domains N1 and N2 of the A-region of Staphylococcus aureus collagen adhesion protein, amino acids 30-344; Order: His-tag, thrombin cleavage site, CNA35, flexible linkage of about 20 amino acids, mAmetrine; 64.4 kDa; also called CNA35-FP; C-terminal fusion of mAmetrine to CNA35; not shown: mAmetrine, C-terminal, kept) ARDISSTNVTDLTVSPSKIEDGGKTTVKMTFDDKNGKIQNGDMIKVAWPTSGTVKIEGYSKTVPLTVKGEQVGQAVITPDGATITFNDKVEKLSDVSGFAEFEVQGRNLTQTNTSDDKVATITSGNKSTNVTVHKSEAGTSSVFYYKTGDMLPEDTTHVRWFLNINNEKSYVSKDITIKDQIQGGQQLDLSTLNINVTGTHSNYYSGQSAITDFEKAFPGSKITVDNTKNTIDVTIPQGYGSYNSFSINYKTKITNEQQKEFVNNSQAWYQEHGKEEVNGKSFNHTVHNINANAGIEGTVKGELKVLKQDKDTKA	~1000
CNA35-mTurquoise2 (domain or fragment, CNA35: domains N1 and N2 of the A-region of Staphylococcus aureus collagen adhesion protein, amino acids 30-344; Order: His-tag, thrombin cleavage site, CNA35, flexible linkage of about 20 amino acids, mTurquoise2; 65.0 kDa; also called CNA35-FP; C-terminal fusion of mTurquoise2 to CNA35; not shown: mTurquoise2, C-terminal, kept) ARDISSTNVTDLTVSPSKIEDGGKTTVKMTFDDKNGKIQNGDMIKVAWPTSGTVKIEGYSKTVPLTVKGEQVGQAVITPDGATITFNDKVEKLSDVSGFAEFEVQGRNLTQTNTSDDKVATITSGNKSTNVTVHKSEAGTSSVFYYKTGDMLPEDTTHVRWFLNINNEKSYVSKDITIKDQIQGGQQLDLSTLNINVTGTHSNYYSGQSAITDFEKAFPGSKITVDNTKNTIDVTIPQGYGSYNSFSINYKTKITNEQQKEFVNNSQAWYQEHGKEEVNGKSFNHTVHNINANAGIEGTVKGELKVLKQDKDTKA	~1000
mCherry-CNA35 (domain or fragment, CNA35: domains N1 and N2 of the A-region of Staphylococcus aureus collagen adhesion protein, amino acids 30-344; Order: His-tag, thrombin cleavage site, mCherry, flexible linkage of about 20 amino acids, CNA35; 64.6 kDa; also called FP-CNA35; N-terminal fusion of mCherry to CNA35; not shown: mCherry, N-terminal, kept) ARDISSTNVTDLTVSPSKIEDGGKTTVKMTFDDKNGKIQNGDMIKVAWPTSGTVKIEGYSKTVPLTVKGEQVGQAVITPDGATITFNDKVEKLSDVSGFAEFEVQGRNLTQTNTSDDKVATITSGNKSTNVTVHKSEAGTSSVFYYKTGDMLPEDTTHVRWFLNINNEKSYVSKDITIKDQIQGGQQLDLSTLNINVTGTHSNYYSGQSAITDFEKAFPGSKITVDNTKNTIDVTIPQGYGSYNSFSINYKTKITNEQQKEFVNNSQAWYQEHGKEEVNGKSFNHTVHNINANAGIEGTVKGELKVLKQDKDTKA	~1000
